Assay: label from the status in PepcDB records

Row | Sequence | protein production
1 | MRLGTFHKKKRFYINKIKINFLSFLFRNKINNQITDPAQVKSCLIIHDNNKLGDLIVLSSIYRELYSKGVKITLLTNRKGGEFLSNNKNIFEFCIKESTGFLEMLTLCKHLRDLQFDIVLDPFETMPSFKHSLILSSLKDSYILGFDHWYKRYYSFYHPHDECLKEHMSTRAIEILKHIYGEGKFSTNYDLHLPVDVEDKIKEFIGDTRIVIINPLGAKKICRLTFEQIKVIYQEVKTHFENYRIIFTGLPQDLLTIPILEIETLPFDEFIYTVALTKYSDFVISVDTALVHIAAAYHKPTLAFYPNSRTPEYPSHLIWSPNHHKSIQIVSPTYTVKDIDTETLTNSVKRLSCIDKK | failed
2 | MRLINTTSSHPELVRNQLQNTDAKLVEVYSAGNTDVVFTKAPKHYELLISNKYRAIKDEELEAIREFFLKRKIDQSIIIQEQMKSLHTAKLIEISYPTTA | failed
3 | MRLITNLLIIAILFSVPHVSIARIPEVVLSKKSAVVSIYVEDKQKIVAGGSGFIIDQNGIIVTNAHVIEPWNKSTTGILYVKKSDGTFLEPTEVIAADAVKDVALVRVKEQNLPFIKLTSNITPTQGDDVVVIGNPLGLETTVTDGIISAIRGEDGFLQISAPISQGSSGSPVLNSKGEAIGVATSIMAGGQNLNFAIPASYVTNLPTQEKAPPVKGLKKRAESPSGFETVTPEDIERDVVQIPEGAVHKGKVLFATDSGGYTYIRIEENGAPLWVAVTQTTISIGDIIEFPDSPPMTGFNSKSMNMTFDKITFAAGIRIVQRGNVEFKSPEEKHLYYAEQYSSMNNTPAAIEEISKAIELNPKKAEYYGKRANYYLQRRMYADSKSDEYQQIVASNRESCRNAVDDLNKAIAINPGNDVFYATQARIFTDSLFCDYANADKAIKLYETAIQLNPKKADYYVEKGWQHKIKNDFSKVLDCAKKALSISPNNEDAHYLYGSYYEENNKYDKALEYYTKGLSVSDNVTFGYFYIDGVMEKTKKYDDAVRIYTDLIKQHPKRLIFYNGRAEYYAKLKNYKKAIADYTTCIKLNPNSEYNYNLRANCYYEDGKKSEALTDYRTACDMKHAESCEMIPIVFADIKRGANWVPVAASSDVNYYYDKKGYTKNKNGVAVAWIRGEITDKEEYIKDIDISEYEKEKYKNVSHVMSRFEVDCPNQKLRVPISLIYAENGNVIRSYEDEKTKYSNIIPNSIGASIHENLCKGAPAKKIGKKK | failed
4 | MRLLHTSDWHLGRSFHGVGMLDAQRNFVDQLVSLVQSKSVDVVLIAGDVYDRALPGLDVVKLLDDALVRITQAGAGVVLTSGNHDSAIRLGFASRLLERGGVHLRTKVEDIDVPVLFPLGGDENAKNSTLNGQVVVYGIPYLEPRLVAERLGAENANHFDVTLAAVERIRRDVEARRASGPVYPVVLAHTFASGGITSESERDLSIGGLGAVPLDLFDDFAYTALGHLHGRQELAPHVRYSGSPLAYSFSEAKHHKGAWLVDLDAGGVIAVEEVLWEAPKALATLRGTLDDLLGAEEHAWAENAYCQITLTDTQRPAQAMERVRTRFPDTLVLSFDPQGAAARTSTSYSNRLAEAEDDLGVCCGFLDHVRDRDASDAEEAALREALEAVRLQEAEL | failed
5 | MRLLSSPINRGFFDYVELYPSLVSSYFPPPDRPSAVLSVGETRYVNSVKQTASLDSLNDYEEQFPPLTGGSKTKKFYLGSTNPSTPCQSSQLQNWTSGKDALSLQRNLGCKNRRRRRASRFLHEESNGTTFEVGAGIGSPTSMVHFDSTNPSSSSKSSQSQNLKIRKVRNHRNSGFKSRDQSPQRIKDPPPFDICSSVLERNDTSIKDWILADETNRETVEVSNKHKVIRPGMVLLKDFLTPDIQVDIVKTCRELGVKPTGFYQPGYSVGSKLHLQMMCLGRNWDPQTKYRKNTDIDSKAPEIPVTFNVLVEKAIREAHALIDRESGTEDAERILPVMSPDICIVNFYSETGRLGLHQDRDESEESIARGLPIVSFSIGDSAEFLYGEKRDVEEAQGVILESGDVLIFGGESRMIFHGVKSIIPNSAPMSLLNESKLRTGRLNLTFRHF | failed
6 | MRLLVSCVDSGSIKEVLCNIGTDTSVQSALQPFHVAPHLAEGLKAYVDRMWVISEDEAILARNSGVVELVKISKHLKENEALQVDPKGESKNEKSLSDDLPKFDISEFEITSSVSDLFDDAKLESLSSKSVKRTKLVDGFVTLCPIKKDSSNNTFVAATKSGLLHIIKKGEDKKLIKLASLGLKAPVEFLQLYDLEDTDTDKYIFAYGGEENLIKLVEIDSSFQSLKQIWEAKNVKNDRLDMRVPVWPMALRFLEPSPGKTEKGKLNYQFAAITRWSHLTKYSTQHGRKPFAQIDLLPNREPLSQMEVFDAKGENVVSSLGNFQSETFNELNVITTDYKKNVFKFDGNGRMLGKVGRDDITGSSTYIHVHDGKYLLQGGLDRYVRIFDIKTNKMLVKVYVGSRINFIVMLDDVEIEMPLSPSAKAAKGKQKRKVTELEEDADELWNKLEGKVAASKASKKSKI | not failed
